Measured values reported in patent US7556939B2, “Identification and characterization of racemases, definition of protein signatures, and a test for detecting D-amino acid and for screening molecules capable of inhibiting the activity of racemase, especially proline racemase” (Institut Pasteur, priority 2003, dated 2009).
Several values for one entry are separate records, joined by “and”; a condition that tells them apart may be missing. Equal values may be shown once.

How the values were obtained:
TcPRAC [1] = biological target: T1, TcPRAC (Trypanosoma cruzi, UniProt Q4DA80); conditions: cited from earlier work
T1 construct: made in house

D-AAO = biological target: T2, D-AAO (Sus scrofa, UniProt P00371); assay: D-AAO/HRP reaction on D-proline in presence of PAC or L-proline; type: biochemical, swine
T2 construct: purchased Sigma A-5222; host or cells: swine kidney
T2 sequence (P00371 whole entry): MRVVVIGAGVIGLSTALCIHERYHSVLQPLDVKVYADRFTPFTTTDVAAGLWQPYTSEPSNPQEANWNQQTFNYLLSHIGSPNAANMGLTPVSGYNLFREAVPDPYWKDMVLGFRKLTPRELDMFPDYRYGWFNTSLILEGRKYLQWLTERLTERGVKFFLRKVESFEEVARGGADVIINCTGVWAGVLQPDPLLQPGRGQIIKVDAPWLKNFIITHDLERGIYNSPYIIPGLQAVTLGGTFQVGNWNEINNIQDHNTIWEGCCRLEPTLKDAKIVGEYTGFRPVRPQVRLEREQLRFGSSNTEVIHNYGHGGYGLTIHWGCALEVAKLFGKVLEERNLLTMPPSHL

TcPRAC enzyme isoforms = conditions: span over the enzyme isoforms
Procedure: (§1) Optical rotation was measured every 5 sec during 10 min and every 5 min to 1 hour. […] Calculations were done using the Kaleïdagraph program. […] Graphic representation and linear curve regression allowed the determination of Ki as [PAC]/[(slope with PAC/slope without PAC)−1]. All reagents were purchased from Sigma.

CsPR = biological target: T3, CsPR (Acetoanaerobium sticklandii, UniProt E3PTZ4); conditions: reported for the proline racemase of C. sticklandii; cited from earlier work
T3 sequence (E3PTZ4 1-335): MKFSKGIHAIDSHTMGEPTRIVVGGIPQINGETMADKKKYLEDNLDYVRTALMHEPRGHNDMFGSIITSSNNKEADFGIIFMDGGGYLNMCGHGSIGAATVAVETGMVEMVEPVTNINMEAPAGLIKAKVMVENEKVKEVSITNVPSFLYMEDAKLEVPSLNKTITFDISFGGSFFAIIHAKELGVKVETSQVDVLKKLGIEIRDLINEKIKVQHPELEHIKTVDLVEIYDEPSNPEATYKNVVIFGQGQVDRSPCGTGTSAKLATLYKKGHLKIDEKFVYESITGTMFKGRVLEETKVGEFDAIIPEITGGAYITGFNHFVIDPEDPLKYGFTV

rTcPRACA = biological target: T4, rTcPRACA (Trypanosoma cruzi, UniProt Q4DA80); assay: Kinetic and inhibition assays of L-proline racemization, polarimetric; type: biochemical
T4 construct: resulting TcPRACA* fragment encoding for the mature proline racemase was purified and cloned; His6 (C); made in house; host or cells: E. coli BL21 (DE3)
Procedure: (§2) The progress of racemization reaction was monitored polarimetrically, as previously described (13). […] Values obtained were confirmed by using the Kaleïdagraph® program and Michaelis-Menten equation. […] C.
as §1

rTcPRACB = rTcPRACB (Trypanosoma cruzi, UniProt Q868H8); assay: as above; type: biochemical
Chain of rTcPRACB (Q868H8 whole entry): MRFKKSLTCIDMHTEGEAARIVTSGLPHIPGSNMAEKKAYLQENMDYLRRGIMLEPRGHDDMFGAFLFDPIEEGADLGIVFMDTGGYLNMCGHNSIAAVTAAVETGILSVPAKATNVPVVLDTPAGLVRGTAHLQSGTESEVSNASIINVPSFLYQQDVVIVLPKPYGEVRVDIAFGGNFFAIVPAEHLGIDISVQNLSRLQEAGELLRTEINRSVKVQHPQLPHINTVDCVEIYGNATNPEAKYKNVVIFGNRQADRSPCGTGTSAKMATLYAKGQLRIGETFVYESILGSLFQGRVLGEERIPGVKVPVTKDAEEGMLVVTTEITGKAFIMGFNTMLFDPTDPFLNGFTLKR
Procedure: as §2, §1

TcPRAC [2] = biological target: T1, TcPRAC; assay: D-AAO/HRP microplate test of racemisation inhibition; type: biochemical; conditions: concentration giving 50% inhibition of racemisation
Procedure: (1) The volumes are indicated for a single well, but duplicates are mandatory. Leave enough raws of the microplate empty for standard and controls to be used in further steps. Distribute the following volumes per well reactions: • a) without inhibitor (Vol=QS 81 μl)
A range of concentrations between 5 mM and 1 mM can be planned for the inhibitor. It should be diluted in sodium acetate buffer 0.2 M pH 6.0.
• (2) Cover the microplate with an adhesive coverlid and leave for […] at 37° C. • (3) At the end of racemisation, 5.5 μl of 0.235M Pop are added in each reaction well of the microplate in order to shift pH from pH6.0 to pH 8.3.
It is used for assessing the amount of D-Proline formed after racemization. The standard range is made in microtubes, as follows:
• (3) Prepare a mixture containing the enzymes (D-AAO/HRP Mix), as follows: The amounts are given for one well, provided that the final volume will be 100 μl with the racemase products or the substrate:
This mixture is kept in the ice until use. • (4) The quantitation reaction starts when 13 μl of D-AAO/HRP mix is added to the reaction well. • (5) The microplate is covered with an adhesive coverlid and it is left in the dark at 37° C. between […] and 2 hours. The reaction can be monitored by eye whenever a color gradient matches the D-amino acid concentration of the standard dilutions. • (6) The microplate is read with a microplate spectrophotometer using a filter of at 490 nm.

TcPRAC [3] = biological target: T1, TcPRAC; assay: Racemisation inhibition, detection with polarimeter; type: biochemical
Procedure: (§3) The reaction was stopped by incubating for 10 min at 80° C. and freezing. Water (1 ml) was then added, and the optical rotation was measured in a polarimeter 241 MC (Perkin Elmer, Montigny le Bretonneux, France) at a wavelength of 365 nm, in a cell with a path length of 10 cm, at a precision of 0.001 degree. […] All reagents were purchased from Sigma.

[4] = tested on: non-infected monkey cell cultures
B cell = conditions: cited from earlier work
[5] = Stability of recombinant proline racemases under different storage conditions; type: physicochemical
Procedure: After purification on nickel-nitrilotriacetic acid agarose column, recombinant proteins were kept for 10 days in nickel column buffer (20 mM Tris/500 mM NaCl/500 mM imidazol, pH 8.0) at room temperature (RT) or at +4° C., or either diluted in 50% glycerol and maintained at −20° C. (Gly/−20° C.) or in optimum pH buffer (NaOAc, pH 6.0) at 4° C. Recombinant enzymes were precipitated in (NH4)2SO4 and kept in solution at 4° C. or pellet dried at −20° C. Racemase assays were performed for 30 min at 37° C.

[6] = Racemization assays, polarimetric; type: biochemical; conditions: for % racemization / Optical rotation: 5 μg protein, 40 mM L-proline, pH 6.0, 37° C.
Procedure: as §3
Optical rotation was measured and % of racemization was determined as described in Example 5.
Optical rotation was measured at different times and % of racemization was determined as described in Example 5.

Trypanosoma cruzi = assay: Immunization of mice and infectious challenge with live Trypanosoma cruzi; type: in vivo; conditions: mice, sub-mitogenic doses

For O=C(O)CI [iodoacetate], the “TcPRAC enzymatic activity after alkylation” value (TcPRAC [1]) is given as “abolished”.

In the case of O=C(O)[C@@H]1CCCN1 [L-proline], the “effect on D-amino-oxidase activity” value (D-AAO; equimolar mixture of D- and L-Proline versus D-Proline alone) is given as “Inhibits”, the Km (TcPRAC enzyme isoforms) is given as 29 to 75 mM and the Km (CsPR) is given as 2.3 mM.

For O=C(O)c1ccc[nH]1 [PAC, pyrrole-2-carboxylic acid], the Ki (rTcPRACA) was 5.7 µM, the Ki (rTcPRACB) was 3.6 µM and the IC50 (TcPRAC [2]; 10 mM L-Proline) was 45 µM and 50 µM. For the same molecule, the IC50 (TcPRAC [2]; 20 mM L-Proline) was 170 µM, the IC50 (TcPRAC [2]; 40 mM L-Proline) was 220 µM and the IC50 (TcPRAC [3]) was 1000 µM. The “influence on DAAO/HRP reaction” value (D-AAO; D-Proline 0.1 mM to 40 mM, OD 490 nm) was “does not influence”, the “interference with cellular growth” value [4] was “do not interfere with cellular growth” and the “effect of TcPRAC inhibition on TcPRAC B cell mitogenic ability” value (B cell) was “total loss”.

In the case of NC(=O)CI [iodoacetamide], the “TcPRAC enzymatic activity after alkylation” value (TcPRAC [1]) is given as “abolished”.

B1: rTcPRACA: recombinant C-terminal His6-tagged T. cruzi proline racemase, 45 kDa secreted isoform, produced in E. coli (protein)
chain: GQEKLLFDQKYKIIKGEKKEKKKNQRANRREHQQKREIMRFKKSFTCIDMHTEGEAARIVTSGLPHIPGSNMAEKKAYLQENMDYLRRGIMLEPRGHDDMFGAFLFDPIEEGADLGMVFMDTGGYLNMCGHNSIAAVTAAVETGIVSVPAKATNVPVVLDTPAGLVRGTAHLQSGTESEVSNASIINVPSFLYQQDVVVVLPKPYGEVRVDIAFGGNFFAIVPAEQLGIDISVQNLSRLQEAGELLRTEINRSVKVQHPQLPHINTVDCVEIYGPPTNPEANYKNVVIFGNRQADRSPCGTGTSAKMATLYAKGQLRIGETFVYESILGSLFQGRVLGEERIPGVKVPVTKDAEEGMLVVTAEITGKAFIMGFNTMLFDPTDPFKNGFTLKQ
modifications: left off: small tags and cut ends
notes: recombinant C-terminal His6-tagged T. cruzi proline racemase, 45 kDa secreted isoform, produced in E. coli
For B1, the “% of preservation of proline racemase activity” value ([5]; 10 days, 50% glycerol, −20° C. (Gly/−20° C.)) was 62.9%, the “% of preservation of proline racemase activity” value ([5]; 10 days, NaOAc pH 6, 4° C.) was 31.0% and the “% of preservation of proline racemase activity” value ([5]; 10 days, column buffer pH 8.0, +4° C.) was 65% and 66.5%. The “% of preservation of proline racemase activity” value ([5]; 10 days, column buffer pH 8.0, RT) was 16.0%, the loss of activity ([5]; 10 days, room temperature, 0.5 M imidazol buffer pH 8.0) was 84% and the “% of preservation of proline racemase activity” value ([5]; (NH4)2SO4 precipitated, in solution, 4° C.) was 53.9%. For the same molecule, the “% of preservation of proline racemase activity” value ([5]; (NH4)2SO4 precipitated, pellet dried, −20° C.) was 100.0%, the “% of preservation of proline racemase activity” value ([5]; CTRL, freshly purified proteins) was 100.0% and the “temperature of maximal enzyme activity” value [6] was 37 °C. The “% racemization” value ([6]; 0 min) was 0%, the Optical rotation ([6]; 0 min) was −0.385 and the “enzyme activity after heating” value ([6]; 5 min at 80° C.) was “abolished”. The “% racemization” value ([6]; 10 min) was 22%, the Optical rotation ([6]; 10 min) was −0.300 and the “% racemization” value ([6]; 30 min) was 58%. For the same molecule, the Optical rotation ([6]; 30 min) was −0.162, the “% racemization” value ([6]; 60 min) was 77% and the Optical rotation ([6]; 60 min) was −0.088.

B2: TcPRAC: Trypanosoma cruzi proline racemase, B cell mitogen, used for immunization of mice (protein)
chain: GQEKLLFDQKYKIIKGEKKEKKKNQRANRREHQQKREIMRFKKSFTCIDMHTEGEAARIVTSGLPHIPGSNMAEKKAYLQENMDYLRRGIMLEPRGHDDMFGAFLFDPIEEGADLGMVFMDTGGYLNMCGHNSIAAVTAAVETGIVSVPAKATNVPVVLDTPAGLVRGTAHLQSGTESEVSNASIINVPSFLYQQDVVVVLPKPYGEVRVDIAFGGNFFAIVPAEQLGIDISVQNLSRLQEAGELLRTEINRSVKVQHPQLPHINTVDCVEIYGPPTNPEANYKNVVIFGNRQADRSPCGTGTSAKMATLYAKGQLRIGETFVYESILGSLFQGRVLGEERIPGVKVPVTKDAEEGMLVVTAEITGKAFIMGFNTMLFDPTDPFKNGFTLKQ
modifications: left off: small tags and cut ends
notes: Trypanosoma cruzi proline racemase, B cell mitogen, used for immunization of mice
In the case of B2, the “specific antibody responses directed to TcPRAC” value (Trypanosoma cruzi) is reported as “high levels of specific antibody responses” and the “immunoprotection against infectious challenge” value (Trypanosoma cruzi; challenge with live Trypanosoma cruzi) is reported as “high levels of immunoprotection”.
